From IntAct's records for PubMed 15090617

B1: Protein SGT1 (Saccharomyces cerevisiae), Q08446 (parent)
chain: MPVEKDLKTAYKALYDEKEPLKALHLYDEILKGSPTNLTALIFKAACLEKLYFGFSDWHSDATMENAKELLDKALMTAEGRGDRSKIGLVNFRYFVHFFNIKDYELAQSYFKKAKNLGYVDDTLPLWEDRLETKLNKKNKKQKDSTNKHTIKPVESIENRGDNNSSHSPISPLKIETAPQESPKFKIDWYQSSTSVTISLFTVNLPESKEQVNIYISPNDRRTLSISYQVPKSGSEFQYNAKLSHEVDPKAVSLKIFPKKLEITLSKIDSTQWKKLEEDILTESSRLSDEGKNSDSATRLLSAETASKERLSYPSSSKKKIDWSKLDIDEEADEEAGSADSFFQKLYAGADPDTKRAMMKSFIESNGTALSTDWEDVSKGTVKTSPPEGMEPKHW

Variants of: B1
Details: with skp1_yeast SKP1, P52286
Chain of skp1_yeast SKP1, P52286 (P52286 whole entry): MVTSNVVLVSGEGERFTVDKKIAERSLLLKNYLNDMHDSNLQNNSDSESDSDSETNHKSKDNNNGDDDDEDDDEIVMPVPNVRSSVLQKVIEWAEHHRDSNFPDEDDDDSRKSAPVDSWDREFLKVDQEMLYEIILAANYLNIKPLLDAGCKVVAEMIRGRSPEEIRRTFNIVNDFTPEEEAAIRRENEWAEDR

effect of a mutation on the interaction | Variant
decreasing interaction | MPVEKDLKTAYKALYDEKEPLKALHLYDEILKGSPTNLTALIFKAACLEKLYFGFSDWHSDATMENAKELLDKALMTAEGRGDRSKIGLVNFRYFVHFFNIKDYELAQSYFKKAKNLGYVDDTLPLWEDRLETKLNKKNKKQKDSSNKHTIKPVESIENRGDNNSSHSPISPLKIETAPQESPKFKIDWYQSSTSVTISLFTVNLPESKEQVNIYISPNDRRTLSISYQVPKSGSEFQYNAKLSHEVDPKAVSLKIFPKKLEITLSKIDSTQWKKLEEDILTESSRLSDEGKNSDSATRLLSAETASKERLSYPSSSKKKIDWSKLDIDEEADEEAGSADSFFQKLYAGADPDTKRAMMKSFIESNGTALSTDWEDVSKGTVKTSPPEGMEPKHW [T146S]
